Experimental data published in doi:10.1101/2025.11.04.686334 (bioRxiv, 2025).

Target: HA head domain of A/Hong Kong/1/1968 (H3N2) (Influenza A virus A/Hong Kong/1/1968 …, strain)
Test: ELISA
Settings: both partners purified

B1: FluA-20 mAb (antibody, V domains shown)
VH: QVQLEESGPGLVKPSETLSLTCSVSGVSVTSDIYYWTWIRQPPGKGLEWIGYIFYNGDTNYNPSLKSRVTMSIDTSKNEFSLRLTSVTAADTAVYFCARGTEDLGYCSSGSCPNHWGQGTLVTVSS
VL: DIVMTQSPSSLSASIGDRVTITCRPSQNIRSFLNWFQHKPGKAPKLLIYAASNLQSGVPSRFSGSGSGTEFTLTIRSLQPEDFATYYCQQSYNTPPTFGQGTKVEIK
  binding result: binds
